Test results reported in patent CN115746140A (SHENZHEN KANGTI BIOMEDICAL TECH CO LTD, dated 2023).

Target: T1, PCSK9蛋白 (Proprotein convertase subtilisin kexin type 9) (UniProt Q8NBP7 31-692, limits assumed)
T1 construct: also called PCSK9抗原
Assay: SPR; immobilised partner and format not stated

T1 sequence (Q8NBP7 31-692 limits assumed): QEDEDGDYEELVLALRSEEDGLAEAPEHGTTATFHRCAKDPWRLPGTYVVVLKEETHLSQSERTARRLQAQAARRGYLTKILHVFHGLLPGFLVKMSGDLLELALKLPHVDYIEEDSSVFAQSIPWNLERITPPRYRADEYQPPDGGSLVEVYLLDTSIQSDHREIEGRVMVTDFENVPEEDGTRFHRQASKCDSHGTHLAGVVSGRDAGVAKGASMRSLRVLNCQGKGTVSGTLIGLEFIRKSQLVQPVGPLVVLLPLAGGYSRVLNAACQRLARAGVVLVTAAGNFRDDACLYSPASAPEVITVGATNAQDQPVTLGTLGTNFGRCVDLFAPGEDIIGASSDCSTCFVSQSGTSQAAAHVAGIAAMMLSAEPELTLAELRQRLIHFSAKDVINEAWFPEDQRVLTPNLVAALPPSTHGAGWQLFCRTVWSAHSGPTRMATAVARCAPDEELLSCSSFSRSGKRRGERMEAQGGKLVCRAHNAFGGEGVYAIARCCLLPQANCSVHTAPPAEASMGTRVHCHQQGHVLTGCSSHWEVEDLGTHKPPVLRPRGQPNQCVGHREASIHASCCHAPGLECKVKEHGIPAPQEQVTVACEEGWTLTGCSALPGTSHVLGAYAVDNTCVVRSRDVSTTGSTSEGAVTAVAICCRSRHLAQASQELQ

Kd: 70 nM
koff: 0.00921 s⁻¹
kon: 130000 M⁻¹ s⁻¹
B1: 纳米抗体P2-11D (anti-PCSK9 nanobody P2-11D) (VHH)
VHH: DVQLQESGGGLVQPGGSLRLSCAASGFTFRAYDMGWYRQAPGKQRDLVAVISSSGGTPNYADSVKDRFTISRDNDKNTVYLQMNSLKSEDTALYYCNARWESSAYERDYWGRGTQVTVSS
notes: Monovalent alpaca VHH, expressed from pET22b in E. coli BL21 and purified on Ni resin and by size exclusion; also called 抗PCSK9单域重链抗体; 抗PCSK9的纳米抗体
